Data published in patent publication US20230086210A1 (Hoffmann-La Roche, published 2023).

Assays:
[1] = biological target: human 4-1BB on Jurkat-hu4-1BB-NFκB-luc2 reporter cells (human, UniProt Q07011 24-255); assay: cell-based or functional assay; parameters: AUC of NFκB-activation-induced Luciferase activity curve: unit not given beside the values
[2] = biological target: T1, human PD-L1 on MKN45-huPD-L1 cells (human, UniProt Q9NZQ7 19-290); assay: flow cytometry on MKN45-huPD-L1 cells, PE-conjugated goat F(ab')2 anti-human Fcγ, geo mean of fluorescence, baseline corrected
T1 construct: The entry is the complete precursor; also called MKN45-PD-L1; human PD-L1-expressing MKN45 cells
Procedure: All values are baseline corrected by subtracting the baseline values of the blank control (e.g. no primary only secondary detection antibody).
Cells were incubated for 30 min at 4° C. and then washed twice with 80 μL/well DPBS. […] Cells were washed twice with 80 μL/well DPBS and then fixed in 30 μL/well DPBS containing 1% formaldehyde for at least 15 minutes.

[3] = biological target: T1, human PD-L1 on MKN45-huPD-L1 cells; assay: flow cytometry on MKN45-huPD-L1 cells, area under the binding curve; parameters: unit not given beside the values

Sequence of human 4-1BB on Jurkat-hu4-1BB-NFκB-luc2 reporter cells (Q07011 24-255): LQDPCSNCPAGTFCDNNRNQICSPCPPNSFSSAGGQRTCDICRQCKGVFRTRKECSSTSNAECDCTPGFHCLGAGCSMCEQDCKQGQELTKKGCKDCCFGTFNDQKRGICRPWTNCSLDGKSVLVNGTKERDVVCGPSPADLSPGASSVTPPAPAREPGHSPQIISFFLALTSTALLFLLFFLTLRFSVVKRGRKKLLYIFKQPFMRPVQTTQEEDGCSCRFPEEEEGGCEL
T1 sequence (Q9NZQ7 19-290 limits assumed): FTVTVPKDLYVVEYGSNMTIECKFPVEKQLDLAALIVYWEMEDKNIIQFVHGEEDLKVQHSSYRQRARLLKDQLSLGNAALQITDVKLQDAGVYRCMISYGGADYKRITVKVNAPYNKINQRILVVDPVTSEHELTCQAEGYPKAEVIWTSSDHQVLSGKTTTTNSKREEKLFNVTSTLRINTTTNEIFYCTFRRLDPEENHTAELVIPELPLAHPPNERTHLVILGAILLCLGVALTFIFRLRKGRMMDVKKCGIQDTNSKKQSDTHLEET

AUC of NFκB-activation-induced Luciferase activity curve [1]	EC50 of NFκB-activation-induced Luciferase activity curve [1]	binding result [2]	AUC [3]	Binder
135000	0.037 nM			4-1BB×PD-L1 2+1 (bispecific agonistic 4-1BB×PD-L1 antibody with bivalent binding to 4-1BB (clone 20H4.9) and monovalent binding to PD-L1, Head to Head 2+1 … (bispecific antibody) heavy 1: QVQLQQWGAGLLKPSETLSLTCAVYGGSFSGYYWSWIRQSPEKGLEWIGEINHGGYVTYNPSLESRVTISVDTSKNQFSLKLSSVTAADTAVYYCARDYGPGNYDWYFDLWGRGTLVTVSSASTKGPSVFPLAPSSKSTSGGTAALGCLVEDYFPEPVTVSWNSGALTSGVHTFPAVLQSSGLYSLSSVVTVPSSSLGTQTYICNVNHKPSNTKVDEKVEPKSCDKTHTCPPCPAPEAAGGPSVFLFPPKPKDTLMISRTPEVTCVVVDVSHEDPEVKFNWYVDGVEVHNAKTKPREEQYNSTYRVVSVLTVLHQDWLNGKEYKCKVSNKALGAPIEKTISKAKGQPREPQVCTLPPSRDELTKNQVSLSCAVKGFYPSDIAVEWESNGQPENNYKTTPPVLDSDGSFFLVSKLTVDKSRWQQGNVFSCSVMHEALHNHYTQKSLSLSP heavy 2: not shown light 1: not shown light 2: not shown
122000	0.097 nM			4-1BB×PD-L1 1+1 (bispecific antibody with monovalent binding to 4-1BB (clone 20H4.9) and monovalent binding to PD-L1) (bispecific antibody) heavy 1: QVQLQQWGAGLLKPSETLSLTCAVYGGSFSGYYWSWIRQSPEKGLEWIGEINHGGYVTYNPSLESRVTISVDTSKNQFSLKLSSVTAADTAVYYCARDYGPGNYDWYFDLWGRGTLVTVSSASTKGPSVFPLAPSSKSTSGGTAALGCLVEDYFPEPVTVSWNSGALTSGVHTFPAVLQSSGLYSLSSVVTVPSSSLGTQTYICNVNHKPSNTKVDEKVEPKSCDKTHTCPPCPAPEAAGGPSVFLFPPKPKDTLMISRTPEVTCVVVDVSHEDPEVKFNWYVDGVEVHNAKTKPREEQYNSTYRVVSVLTVLHQDWLNGKEYKCKVSNKALGAPIEKTISKAKGQPREPQVCTLPPSRDELTKNQVSLSCAVKGFYPSDIAVEWESNGQPENNYKTTPPVLDSDGSFFLVSKLTVDKSRWQQGNVFSCSVMHEALHNHYTQKSLSLSP heavy 2: not shown light 1: not shown light 2: not shown
8870	0.32 nM	no binding (tested: 100 nM)	432	4-1BB huIgG1 P329G LALA (anti-human 4-1BB clone 20H4.9 as huIgG1 P329G LALA) (antibody, V domains shown, Human IgG1 with P329G L234A L235A) VH: QVQLQQWGAGLLKPSETLSLTCAVYGGSFSGYYWSWIRQSPEKGLEWIGEINHGGYVTYNPSLESRVTISVDTSKNQFSLKLSSVTAADTAVYYCARDYGPGNYDWYFDLWGRGTLVTVSS VL: EIVLTQSPATLSLSPGERATLSCRASQSVSSYLAWYQQKPGQAPRLLIYDASNRATGIPARFSGSGSGTDFTLTISSLEPEDFAVYYCQQRSNWPPALTFGGGTKVEIK
